From patent publication US20100260668A1 (published 2010)
One block for each binder: values may come before it.

Target: T1, VEGF (UniProt P15692-4 27-191)
T1 construct: Bought reagent; also called vascular endothelial growth factor
Assay: BIACORE SPR

T1 sequence (P15692 other isoform, or with tags, fused parts or gaps limits assumed): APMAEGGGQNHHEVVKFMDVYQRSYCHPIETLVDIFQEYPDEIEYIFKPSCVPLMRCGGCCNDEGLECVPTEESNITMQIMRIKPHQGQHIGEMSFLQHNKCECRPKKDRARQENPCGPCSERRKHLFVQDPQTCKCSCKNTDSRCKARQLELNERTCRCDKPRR

B3: DVD488 (bispecific antibody, human IgG1, kappa)
heavy: not shown
light: DIQMTQSPSSLSASVGDRVTITCSASQDISNYLNWYQQKPGKAPKVLIYFTSSLHSGVPSRFSGSGSGTDFTLTISSLQPEDFATYYCQQYSTVPWTFGQGTKVEIKRTVAAPDIQMTQSSSYLSVSLGGRVTITCKASDHINNWLAWYQQKPGNAPRLLISGATSLETGVPSRFSGSGSGKDYTLSITSLQTEDVATYYCQQYWSIPLTFGAGTKLELKRTVAAPSVFIFPPSDEQLKSGTASVVCLLNNFYPREAKVQWKVDNALQSGNSQESVTEQDSKDSTYSLSSTLTLSKADYEKHKVYACEVTHQGLSSPVTKSFNRGEC
notes: DVD-Ig; N-term; AB014 (VEGF), C-term; AB072 (DLL4); HC linker short, LC linker short; also called DVD488H; DBD488L
Kd: 0.536 nM
koff: 0.000374 s⁻¹
kon: 699000 M⁻¹ s⁻¹

B7: DVD473 (bispecific antibody, human IgG1, kappa)
heavy: not shown
light: DIQMTQSPSSLSASVGDRVTITCRASQDVSTAVAWYQQKPGKAPKLLIYSASFLYSGVPSRFSGSGSGTDFTLTISSLQPEDFATTYYCQQSYTGTVTFGQGTKVEIKRTVAAPSVFIFPPDIQMTQSPSSLSASVGDRVTITCRASQVIRRSLAWYQQKPGKAPKLLIYAASNLASGVPSRFSGSGSGTDFTLTISSLQPEDFATYYCQQSNTSPLTFGQGTKVEIKRTVAAPSVFIFPPSDEQLKSGTASVVCLLNNFYPREAKVQWKVDNALQSGNSQESVTEQDSKDSTYSLSSTLTLSKADYEKHKVYACEVTHQGLSSPVTKSFNRGEC
notes: DVD-Ig; N-term; AB015 (DLL4), C-term; AB071 (VEGF); HC linker long, LC linker long; also called DVD473H; DVD473L
Kd: 1.27 nM
koff: 0.000265 s⁻¹
kon: 209000 M⁻¹ s⁻¹

B9: DVD467 (bispecific antibody, human IgG1, kappa)
heavy: not shown
light: DIQMTQSPSSLSASVGDRVTITCRASQDVSTAVAWYQQKPGKAPKLLIYSASFLYSGVPSRFSGSGSGTDFTLTISSLQPEDFATTYYCQQSYTGTVTFGQGTKVEIKRTVAAPDIQMTQSPSSLSASVGDRVTITCRASQVIRRSLAWYQQKPGKAPKLLIYAASNLASGVPSRFSGSGSGTDFTLTISSLQPEDFATYYCQQSNTSPLTFGQGTKVEIKRTVAAPSVFIFPPSDEQLKSGTASVVCLLNNFYPREAKVQWKVDNALQSGNSQESVTEQDSKDSTYSLSSTLTLSKADYEKHKVYACEVTHQGLSSPVTKSFNRGEC
notes: DVD-Ig; N-term; AB015 (DLL4), C-term; AB071 (VEGF); HC linker short, LC linker short; also called DVD467H; DVD467L
Kd: 1.33 nM
koff: 0.000236 s⁻¹
kon: 177000 M⁻¹ s⁻¹

B10: DVD479 (bispecific antibody, human IgG1, kappa)
heavy: not shown
light: B9 light
notes: DVD-Ig; N-term; AB015 (DLL4), C-term; AB071 (VEGF); HC linker long, LC linker short; also called DVD479H; DVD479L
Kd: 0.86 nM
koff: 0.000257 s⁻¹
kon: 299000 M⁻¹ s⁻¹

B11: DVD494 (bispecific antibody, human IgG1, kappa)
heavy: not shown
light: DIQMTQSPSSLSASVGDRVTITCSASQDISNYLNWYQQKPGKAPKVLIYFTSSLHSGVPSRFSGSGSGTDFTLTISSLQPEDFATYYCQQYSTVPWTFGQGTKVEIKRTVAAPSVFIFPPDIQMTQSSSYLSVSLGGRVTITCKASDHINNWLAWYQQKPGNAPRLLISGATSLETGVPSRFSGSGSGKDYTLSITSLQTEDVATYYCQQYWSIPLTFGAGTKLELKRTVAAPSVFIFPPSDEQLKSGTASVVCLLNNFYPREAKVQWKVDNALQSGNSQESVTEQDSKDSTYSLSSTLTLSKADYEKHKVYACEVTHQGLSSPVTKSFNRGEC
notes: DVD-Ig; N-term; AB014 (VEGF), C-term; AB072 (DLL4); HC linker long, LC linker long; also called DVD494H; DVD494L
Kd: 0.566 nM
koff: 0.0176 s⁻¹
kon: 3.11e+07 M⁻¹ s⁻¹

B15: DVD463 (bispecific antibody, human IgG1, kappa)
heavy: not shown
light: DIVMTQSPDSLAVSLGERATISCRASESVDNYGISFMKWFQQKPGQPPKLLIYAASNQGSGVPDRFSGSGSGTDFTLTISSLQAEDVAVYYCQQSKEVPWTFGGGTKVEIKRTVAAPSVFIFPPDIQMTQSPSSLSASVGDRVTITCRASQVIRRSLAWYQQKPGKAPKLLIYAASNLASGVPSRFSGSGSGTDFTLTISSLQPEDFATYYCQQSNTSPLTFGQGTKVEIKRTVAAPSVFIFPPSDEQLKSGTASVVCLLNNFYPREAKVQWKVDNALQSGNSQESVTEQDSKDSTYSLSSTLTLSKADYEKHKVYACEVTHQGLSSPVTKSFNRGEC
notes: DVD-Ig; N-term; AB069 (DLL4), C-term; AB071 (VEGF); HC linker short, LC linker long; also called DVD463H; DVD463L
Kd: 0.771 nM
koff: 0.000479 s⁻¹
kon: 621000 M⁻¹ s⁻¹

Binders with a lower Kd, results first:

Kd: 0.504 nM
koff: 0.000248 s⁻¹
kon: 492000 M⁻¹ s⁻¹
B4: DVD500 (bispecific antibody, human IgG1, kappa)
heavy: not shown
light: B3 light
notes: DVD-Ig; N-term; AB014 (VEGF), C-term; AB072 (DLL4); HC linker long, LC linker short; also called DVD500H; DVD500L

Kd: 0.434 nM
koff: 0.125 s⁻¹
kon: 2.88e+08 M⁻¹ s⁻¹
B1: DVD518 (bispecific antibody, human IgG1, kappa, lambda)
heavy: not shown
light: DIQMTQSPSSLSASVGDRVTITCSASQDISNYLNWYQQKPGKAPKVLIYFTSSLHSGVPSRFSGSGSGTDFTLTISSLQPEDFATYYCQQYSTVPWTFGQGTKVEIKRTVAAPSVFIFPPQAVVTQESALTTSPGETVTLTCRSSTGAVTTSNYANWVQEKPDHLFTGLIGGTNNRAPGVPARFSGSLIGDKAALTITGAQTEDEAIYFCALWYSNHWVFGGGTKLTVLGQPKAAPSVTLFPPSSEELQANKATLVCLISDFYPGAVTVAWKADSSPVKAGVETTTPSKQSNNKYAASSYLSLTPEQWKSHRSYSCQVTHEGSTVEKTVAPTECS
notes: DVD-Ig; N-term; AB014 (VEGF), C-term; AB073 (DLL4); HC linker long, LC linker long; also called DVD518H; DVD518L

Kd: 0.372 nM
B8: DVD485 (bispecific antibody, human IgG1, kappa)
heavy: not shown
light: B7 light
notes: DVD-Ig; N-term; AB015 (DLL4), C-term; AB071 (VEGF); HC linker short, LC linker long; also called DVD485H; DVD485L

Kd: 0.307 nM
koff: 5.43e-05 s⁻¹
kon: 177000 M⁻¹ s⁻¹
B6: DVD457 (bispecific antibody, human IgG1, kappa, L234A L235A)
heavy: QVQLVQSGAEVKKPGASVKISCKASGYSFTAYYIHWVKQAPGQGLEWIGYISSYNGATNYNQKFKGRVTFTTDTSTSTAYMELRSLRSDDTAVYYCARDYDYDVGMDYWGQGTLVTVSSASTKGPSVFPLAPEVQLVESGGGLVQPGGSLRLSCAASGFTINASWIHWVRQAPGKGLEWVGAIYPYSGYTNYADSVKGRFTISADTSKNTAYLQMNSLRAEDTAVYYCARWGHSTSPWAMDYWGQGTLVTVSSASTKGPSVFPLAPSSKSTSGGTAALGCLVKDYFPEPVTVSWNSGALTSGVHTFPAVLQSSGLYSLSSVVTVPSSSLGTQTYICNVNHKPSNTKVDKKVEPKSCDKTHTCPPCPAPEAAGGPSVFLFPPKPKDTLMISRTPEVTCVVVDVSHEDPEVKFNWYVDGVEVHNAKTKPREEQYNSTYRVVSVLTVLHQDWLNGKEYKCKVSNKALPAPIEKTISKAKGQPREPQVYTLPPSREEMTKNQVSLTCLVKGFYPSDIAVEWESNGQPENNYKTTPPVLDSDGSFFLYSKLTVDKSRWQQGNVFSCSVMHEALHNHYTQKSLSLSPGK
light: DIVMTQSPDSLAVSLGERATISCRASESVDNYGISFMKWFQQKPGQPPKLLIYAASNQGSGVPDRFSGSGSGTDFTLTISSLQAEDVAVYYCQQSKEVPWTFGGGTKVEIKRTVAAPDIQMTQSPSSLSASVGDRVTITCRASQVIRRSLAWYQQKPGKAPKLLIYAASNLASGVPSRFSGSGSGTDFTLTISSLQPEDFATYYCQQSNTSPLTFGQGTKVEIKRTVAAPSVFIFPPSDEQLKSGTASVVCLLNNFYPREAKVQWKVDNALQSGNSQESVTEQDSKDSTYSLSSTLTLSKADYEKHKVYACEVTHQGLSSPVTKSFNRGEC
notes: DVD-Ig; N-term; AB069 (DLL4), C-term; AB071 (VEGF); HC linker long, LC linker short; also called DVD457H; DVD457L

Kd: 0.281 nM
koff: 0.000171 s⁻¹
kon: 606000 M⁻¹ s⁻¹
B12: DVD506 (bispecific antibody, human IgG1, kappa)
heavy: not shown
light: B11 light
notes: DVD-Ig; N-term; AB014 (VEGF), C-term; AB072 (DLL4); HC linker short, LC linker long; also called DVD506H; DVD506L

Kd: 0.272 nM
koff: 1.8 s⁻¹
kon: 6.64e+09 M⁻¹ s⁻¹
B5: DVD445 (bispecific antibody, human IgG1, kappa)
heavy: not shown
light: B6 light
notes: DVD-Ig; N-term; AB069 (DLL4), C-term; AB071 (VEGF); HC linker short, LC linker short; also called DVD445H; DVD445L

Kd: 0.136 nM
koff: 0.000171 s⁻¹
kon: 1.26e+06 M⁻¹ s⁻¹
B2: DVD530 (bispecific antibody, human IgG1, kappa, lambda, L234A L235A)
heavy: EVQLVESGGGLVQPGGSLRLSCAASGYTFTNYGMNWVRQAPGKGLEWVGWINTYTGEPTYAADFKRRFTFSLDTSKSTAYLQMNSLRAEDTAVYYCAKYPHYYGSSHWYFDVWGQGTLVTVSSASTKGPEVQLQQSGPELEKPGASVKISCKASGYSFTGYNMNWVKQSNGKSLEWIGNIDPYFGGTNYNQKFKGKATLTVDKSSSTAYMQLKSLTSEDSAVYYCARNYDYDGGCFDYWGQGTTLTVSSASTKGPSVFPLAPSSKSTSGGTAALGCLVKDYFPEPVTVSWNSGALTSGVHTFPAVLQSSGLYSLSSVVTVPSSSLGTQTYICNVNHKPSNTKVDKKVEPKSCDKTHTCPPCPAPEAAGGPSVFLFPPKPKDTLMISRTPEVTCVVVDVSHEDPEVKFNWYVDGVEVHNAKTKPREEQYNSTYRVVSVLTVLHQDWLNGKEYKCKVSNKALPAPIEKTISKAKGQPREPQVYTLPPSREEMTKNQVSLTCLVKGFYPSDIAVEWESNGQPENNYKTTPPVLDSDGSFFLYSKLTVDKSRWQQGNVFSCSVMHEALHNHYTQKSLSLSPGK
light: B1 light
notes: DVD-Ig; N-term; AB014 (VEGF), C-term; AB073 (DLL4); HC linker short, LC linker long; also called DVD530H; DVD530L

Kd: 0.113 nM
koff: 0.000188 s⁻¹
kon: 1.67e+06 M⁻¹ s⁻¹
B13: DVD524 (bispecific antibody, human IgG1, lambda)
heavy: not shown
light: DIQMTQSPSSLSASVGDRVTITCSASQDISNYLNWYQQKPGKAPKVLIYFTSSLHSGVPSRFSGSGSGTDFTLTISSLQPEDFATYYCQQYSTVPWTFGQGTKVEIKRTVAAPQAVVTQESALTTSPGETVTLTCRSSTGAVTTSNYANWVQEKPDHLFTGLIGGTNNRAPGVPARFSGSLIGDKAALTITGAQTEDEAIYFCALWYSNHWVFGGGTKLTVLGQPKAAPSVTLFPPSSEELQANKATLVCLISDFYPGAVTVAWKADSSPVKAGVETTTPSKQSNNKYAASSYLSLTPEQWKSHRSYSCQVTHEGSTVEKTVAPTECS
notes: DVD-Ig; N-term; AB014 (VEGF), C-term; AB073 (DLL4); HC linker long, LC linker short; also called DVD524H; DVD524L

Kd: 0.0115 nM
koff: 1.06e-06 s⁻¹
kon: 92200 M⁻¹ s⁻¹
B14: DVD451 (bispecific antibody, human IgG1, kappa, L234A L235A)
heavy: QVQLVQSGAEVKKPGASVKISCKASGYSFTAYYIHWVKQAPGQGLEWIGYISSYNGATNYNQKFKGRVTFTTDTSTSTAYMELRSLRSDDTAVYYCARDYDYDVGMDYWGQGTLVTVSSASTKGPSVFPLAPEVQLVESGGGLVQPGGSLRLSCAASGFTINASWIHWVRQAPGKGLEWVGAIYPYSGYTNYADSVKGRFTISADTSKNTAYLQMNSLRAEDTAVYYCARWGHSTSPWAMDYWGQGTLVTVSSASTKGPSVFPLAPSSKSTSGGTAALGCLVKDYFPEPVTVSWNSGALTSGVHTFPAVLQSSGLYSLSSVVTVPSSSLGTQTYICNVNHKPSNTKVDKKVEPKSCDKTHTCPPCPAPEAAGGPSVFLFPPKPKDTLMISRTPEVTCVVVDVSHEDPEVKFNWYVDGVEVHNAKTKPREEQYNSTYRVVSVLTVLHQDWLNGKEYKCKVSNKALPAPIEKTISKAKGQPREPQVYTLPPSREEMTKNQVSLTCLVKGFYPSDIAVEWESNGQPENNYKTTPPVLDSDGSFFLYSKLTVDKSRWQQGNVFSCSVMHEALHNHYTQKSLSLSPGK
light: B15 light
notes: DVD-Ig; N-term; AB069 (DLL4), C-term; AB071 (VEGF); HC linker long, LC linker long; also called DVD451H; DVD451L
